Patent US20250326862A1, “Antibody or Fragment Thereof Binding Specifically to Mertk, and Anti-Tumor Agent” (Chiome Bioscience Inc., priority 2021, published 2025)

What was measured:
Assay in all cases: ELISA, antigen immobilised at 5 ug/ml, HRP-labelled secondary antibody
[1] = target: T1, Recombinant Human Mer Fc Chimera Protein (R&D systems) (human, UniProt Q12866 26-499, limits assumed)
T1 construct: Bought reagent; also called human MerTK antigen; human Fc fusion protein of human MerTK; not shown: human Fc
T1 sequence (looked up): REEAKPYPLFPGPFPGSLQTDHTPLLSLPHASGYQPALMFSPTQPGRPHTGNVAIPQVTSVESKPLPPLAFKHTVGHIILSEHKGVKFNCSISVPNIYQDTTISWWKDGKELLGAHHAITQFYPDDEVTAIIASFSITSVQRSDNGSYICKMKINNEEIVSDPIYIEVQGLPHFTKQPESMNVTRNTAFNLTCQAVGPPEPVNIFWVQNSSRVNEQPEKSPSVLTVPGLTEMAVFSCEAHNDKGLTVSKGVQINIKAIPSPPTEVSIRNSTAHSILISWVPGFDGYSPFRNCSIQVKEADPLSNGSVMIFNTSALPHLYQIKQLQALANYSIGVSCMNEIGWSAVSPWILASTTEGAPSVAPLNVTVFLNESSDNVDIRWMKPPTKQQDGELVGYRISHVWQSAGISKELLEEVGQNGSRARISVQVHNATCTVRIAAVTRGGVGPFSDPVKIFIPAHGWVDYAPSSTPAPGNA
Description: (§1) The ELISA was performed according to the procedures indicated below. First, the respective antigens were added to an ELISA plate (Nunc) at a concentration of 5 μg/ml and immobilized overnight at room temperature. After removing the immobilization solution, 1% BSA/PBS was added for blocking reaction and left to stand at room temperature for 1 hour. After the blocking, the plate was washed with 0.05% Tween 20/PBS and an antibody solution was added for primary reaction at room temperature for 1 hour. After washing, an HRP-labelled antibody (GE Healthcare) was added for secondary reaction for 1 hour. After washing, a chromogenic substrate solution of TMB (Dako) was added for chromogenic reaction for 10 minutes, 1 N sulfuric acid was added to terminate the reaction and the absorbance was measured at 450 nm.

[2] = target: T2, Recombinant Mouse Mer Fc Chimera Protein (R&D systems) (mouse, UniProt Q60805 23-496, limits assumed)
T2 construct: Bought reagent; also called mouse MerTK antigen; human Fc fusion protein of mouse MerTK; not shown: human Fc
T2 sequence (looked up): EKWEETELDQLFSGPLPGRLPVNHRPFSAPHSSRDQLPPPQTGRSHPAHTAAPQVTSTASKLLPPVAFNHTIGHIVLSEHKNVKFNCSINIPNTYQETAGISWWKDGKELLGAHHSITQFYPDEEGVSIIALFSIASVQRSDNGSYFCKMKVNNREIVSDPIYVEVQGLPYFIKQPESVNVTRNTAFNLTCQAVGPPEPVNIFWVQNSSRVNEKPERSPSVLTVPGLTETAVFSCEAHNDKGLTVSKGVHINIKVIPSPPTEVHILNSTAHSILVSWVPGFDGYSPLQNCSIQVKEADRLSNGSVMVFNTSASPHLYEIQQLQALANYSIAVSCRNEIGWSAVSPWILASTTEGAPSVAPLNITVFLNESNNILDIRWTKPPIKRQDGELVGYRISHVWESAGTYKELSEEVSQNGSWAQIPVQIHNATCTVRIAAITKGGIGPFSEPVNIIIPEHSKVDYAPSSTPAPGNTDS
Description: as §1

[3] = target: T3, rat MerTKECD-hFc (rat, UniProt P57097 19-497)
T3 construct: extracellular domain; Prepared in the same manner as hMerTKECD-mFc and mMerTKECD-mFc; not shown: human Fc
T3 sequence (looked up): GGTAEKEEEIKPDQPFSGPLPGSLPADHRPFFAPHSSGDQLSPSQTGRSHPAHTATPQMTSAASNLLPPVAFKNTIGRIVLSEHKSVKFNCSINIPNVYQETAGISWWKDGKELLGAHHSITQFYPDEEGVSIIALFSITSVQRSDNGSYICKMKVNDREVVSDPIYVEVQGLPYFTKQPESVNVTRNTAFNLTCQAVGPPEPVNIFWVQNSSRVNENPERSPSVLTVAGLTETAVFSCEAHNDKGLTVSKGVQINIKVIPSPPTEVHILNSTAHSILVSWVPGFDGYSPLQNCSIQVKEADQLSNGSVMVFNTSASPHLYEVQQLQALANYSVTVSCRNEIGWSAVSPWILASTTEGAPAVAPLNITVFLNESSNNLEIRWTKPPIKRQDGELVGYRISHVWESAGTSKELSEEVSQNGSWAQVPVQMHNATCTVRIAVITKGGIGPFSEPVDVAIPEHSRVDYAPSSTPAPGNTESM
Description: as §1

Measured: binding result

B1: m20A77_mIgG1 (antibody, V domains shown)
VH: QVQLQQPGTELVKPGASVKLSCRASGNTFTSYWMHWVKQRPGQGLEWIGNINPSSGGTNYNEKFKSKATLTVDKSSSTAYMQLSSLTSEDSAVYYCARLNYYGFDGFAFWGQGTLVTVSA
VL: DIKMTQSPSSMYASLGERVTITCKASQDINSYLSWFQQKPGKSPKTLIYRANRLVSGVPSRFSGSGSGQDYSLTISSLEYEDMGIYYCLQYDEFPFTFGSGTKLEIK
notes: CDR-modified variant of 20A77, made recombinantly with mouse IgG1 heavy chain and kappa light chain constant regions
binds: all assays above
